According to patent US20260263521A1, “ANTI-CD200R1 ANTIBODY AND USE THEREOF” (AIMED BIO INC., priority 2023, published 2026):

Tests used:
human CD200R1 = biological target: T1, human CD200R1 (Homo sapiens, UniProt Q8TD46); experiment: ELISA binding to human CD200R1; details: scFv mutants; antigen binding (ELISA) and cell binding (FACS)
T1 sequence (Q8TD46 25-348): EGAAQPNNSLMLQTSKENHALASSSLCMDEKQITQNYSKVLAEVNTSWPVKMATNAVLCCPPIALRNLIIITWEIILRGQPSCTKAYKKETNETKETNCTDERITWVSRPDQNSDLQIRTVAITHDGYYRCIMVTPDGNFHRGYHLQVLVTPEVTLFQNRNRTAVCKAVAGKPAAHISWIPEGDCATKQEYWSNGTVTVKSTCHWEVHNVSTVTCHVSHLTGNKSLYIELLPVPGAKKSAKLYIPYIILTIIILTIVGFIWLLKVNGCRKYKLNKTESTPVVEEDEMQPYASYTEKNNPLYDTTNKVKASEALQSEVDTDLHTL
Method: 96-well plates were coated with human CD200R1 (R&D systems, 3414-CD) and mouse CD200R1 protein (R&D systems, 2554-CD) at a concentration of 2 μg/mL at 4° C. for 16 hours and then were blocked with 3% skim milk. The result was treated with the antibodies at concentrations of 300 nM, 60 nM, 12 nM, 2.4 nM, 0.48 nM, 0.096 nM, and 0.0192 nM, and reacted at room temperature for 2 hours.
The result was washed with PBST and distilled water, the samples were bound with a goat-derived HRP-conjugated anti-human antibody (Invitrogen, 31482, Goat anti-Human IgG F(ab′)2 Secondary Antibody, HRP) for 1 hour at room temperature, and then washed again with PBST and distilled water. Color was developed with a TMB substrate solution (Thermo Scientific, 34029, 1-Step™ TMB-ELISA Ultra Substrate Solution). The color reaction was stopped with stop solution (Invitrogen, SS04, ELISA Stop Solution). The absorbance was measured at an optical density of 450 nm.

[1] = biological target: T2, CD200R1 on Jurkat-CD200R1 cells (Homo sapiens, UniProt Q8TD46); experiment: Cell binding assay (flow cytometry), Jurkat-CD200R1 cells; assay type: cell-based; details: Jurkat-CD200R1 cells; 500 nM; IgG1 form
T2 construct: host or cells: Jurkat
T2 sequence (Q8TD46 25-348): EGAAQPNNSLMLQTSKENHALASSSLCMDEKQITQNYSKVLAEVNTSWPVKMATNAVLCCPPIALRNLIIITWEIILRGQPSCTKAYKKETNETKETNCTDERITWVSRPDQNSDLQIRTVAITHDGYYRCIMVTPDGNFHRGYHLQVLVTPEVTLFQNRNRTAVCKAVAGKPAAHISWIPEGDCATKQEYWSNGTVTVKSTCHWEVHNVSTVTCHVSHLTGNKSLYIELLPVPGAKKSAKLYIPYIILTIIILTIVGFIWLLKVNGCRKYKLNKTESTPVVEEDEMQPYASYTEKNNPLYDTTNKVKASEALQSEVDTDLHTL
Method: (§1) The binding ability of the antibodies identified using unique multifaceted antibody discovery technology was identified in HH (CRL-2105) cells, which endogenously express CD200R1, and Jurkat-CD200R1 cells (Source: DiscoverX), which were generated by intranuclear injection of CD200R1 cDNA.
(§2) HH and Jurkat-CD200R1 cells were maintained in RPMI 1640 medium supplemented with 10% heat-inactivated FBS and 1% Penicillin/Streptomycin (P/S). The cells were washed by centrifugation at 130 g for 5 minutes. The cells were seeded onto 96-well round-bottom plates (SPL, #34296) at a density of 1×10^5 cells/well in Flow cytometry staining buffer (Invitrogen, #00-4222-26) or FACS buffer. The cells were treated with all 16 substances and the positive control LY3454738 (US 2020/0087395, I-4P, at Eli Lilly) a concentration of 500 nM in the IgG1 form. After incubation for 1 hour at 4° C., the cells were treated with Alexa-647 Goat anti-human IgG (H+L) cross-adsorbed secondary antibody (Invitrogen, #A21445) and incubated at 4° C. for an additional 30 minutes. […]
(§3) Cell-binding ability was determined in the same manner as in Example 12. For the six active substances primarily selected in Example 12, the isotype was changed to IgG4 or the LALAPG gene was mutated, and binding activity was determined in the two cell lines mentioned above.
(§4) Binding ability was determined in HH, an endogenous T cell line with high CD200R1 expression, and two additional overexpressing cell lines: U937-CD200R overexpressing cells, generated by intranuclear injection of human CD200R1 CDNA into the monocytic cell line U937 (CRL-1593.2) (Source: UMC Utrecht, the Netherlands) and Jurkat-CD200R overexpressing cells, were also cells engineered using a similar method.
(§5) All cell lines were maintained in RPMI 1640 medium supplemented with 10% heat-inactivated FBS and 1% penicillin/streptomycin (P/S) and cell binding was determined in the same manner as in Example 12. […]
(§6) Specific binding ability was determined using P001009 WT and antibody-optimized mutants, P001009v1, P001009v2, P001009v3, and P001009v4. […]

[2] = biological target: T3, CD200R1 on HH (CRL-2105) cells (Homo sapiens, UniProt Q8TD46); experiment: Cell binding assay (flow cytometry), HH cells; assay type: cell-based; details: HH cells; 500 nM; IgG1 form
T3 construct: HH (CRL-2105) cells, which endogenously express CD200R1; host or cells: HH (CRL-2105) cells
T3 sequence (Q8TD46 25-348): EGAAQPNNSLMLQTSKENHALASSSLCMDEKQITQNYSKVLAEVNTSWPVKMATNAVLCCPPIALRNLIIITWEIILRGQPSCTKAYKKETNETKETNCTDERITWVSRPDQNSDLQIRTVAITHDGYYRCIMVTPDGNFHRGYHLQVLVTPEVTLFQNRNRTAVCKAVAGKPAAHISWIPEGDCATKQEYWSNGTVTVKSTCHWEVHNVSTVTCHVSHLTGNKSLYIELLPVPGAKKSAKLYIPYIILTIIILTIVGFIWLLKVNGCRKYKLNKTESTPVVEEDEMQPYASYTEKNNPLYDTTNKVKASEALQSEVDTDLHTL
Method: as §1, §2, §3, §4, §5, §6

B1: H3-Y102K: P001018 scFv mutant, SEQ ID NO: 164 (protein)
scFv: QVQLVQSGAEVKKPGASVKVSCKASGYTFTSYVMHWVRQAPGQGLEWMGYINPYNDDTNYNEKFKGRVTMTRDTSTSTVYMELSSLRSEDTAVYYCAREDYYGSRWGKWGQGTLVTVSSGGGGSGGGGSGGGGSDIVLTQSPASLAVSPGQRATITCRASKSVSTSGYSYMHWYQQKPGQPPKLLIYLASNLESGVPARFSGSGSGTDFTLTINPVEANDTANYYCQHSRELLTFGQGTKVEIK
affinity compared with P001018 clone (human CD200R1): enhanced affinity

B2: H3-Y102T: P001018 scFv mutant, SEQ ID NO: 165 (protein)
scFv: QVQLVQSGAEVKKPGASVKVSCKASGYTFTSYVMHWVRQAPGQGLEWMGYINPYNDDTNYNEKFKGRVTMTRDTSTSTVYMELSSLRSEDTAVYYCAREDYYGSRWGTWGQGTLVTVSSGGGGSGGGGSGGGGSDIVLTQSPASLAVSPGQRATITCRASKSVSTSGYSYMHWYQQKPGQPPKLLIYLASNLESGVPARFSGSGSGTDFTLTINPVEANDTANYYCQHSRELLTFGQGTKVEIK
affinity compared with P001018 clone (human CD200R1): enhanced affinity

B3: L3-R92H: P001018 scFv mutant, SEQ ID NO: 166 (protein)
scFv: QVQLVQSGAEVKKPGASVKVSCKASGYTFTSYVMHWVRQAPGQGLEWMGYINPYNDDTNYNEKFKGRVTMTRDTSTSTVYMELSSLRSEDTAVYYCAREDYYGSRWGYWGQGTLVTVSSGGGGSGGGGSGGGGSDIVLTQSPASLAVSPGQRATITCRASKSVSTSGYSYMHWYQQKPGQPPKLLIYLASNLESGVPARFSGSGSGTDFTLTINPVEANDTANYYCQHSHELLTFGQGTKVEIK
affinity compared with P001018 clone (human CD200R1): enhanced affinity

B4: L3-R92S: P001018 scFv mutant, SEQ ID NO: 167 (protein)
scFv: QVQLVQSGAEVKKPGASVKVSCKASGYTFTSYVMHWVRQAPGQGLEWMGYINPYNDDTNYNEKFKGRVTMTRDTSTSTVYMELSSLRSEDTAVYYCAREDYYGSRWGYWGQGTLVTVSSGGGGSGGGGSGGGGSDIVLTQSPASLAVSPGQRATITCRASKSVSTSGYSYMHWYQQKPGQPPKLLIYLASNLESGVPARFSGSGSGTDFTLTINPVEANDTANYYCQHSSELLTFGQGTKVEIK
affinity compared with P001018 clone (human CD200R1): enhanced affinity

B5: L3-L94S: P001018 scFv mutant, SEQ ID NO: 168 (protein)
scFv: QVQLVQSGAEVKKPGASVKVSCKASGYTFTSYVMHWVRQAPGQGLEWMGYINPYNDDTNYNEKFKGRVTMTRDTSTSTVYMELSSLRSEDTAVYYCAREDYYGSRWGYWGQGTLVTVSSGGGGSGGGGSGGGGSDIVLTQSPASLAVSPGQRATITCRASKSVSTSGYSYMHWYQQKPGQPPKLLIYLASNLESGVPARFSGSGSGTDFTLTINPVEANDTANYYCQHSRESLTFGQGTKVEIK
affinity compared with P001018 clone (human CD200R1): enhanced affinity

B6: L3-L94H: P001018 scFv mutant, SEQ ID NO: 169 (protein)
scFv: QVQLVQSGAEVKKPGASVKVSCKASGYTFTSYVMHWVRQAPGQGLEWMGYINPYNDDTNYNEKFKGRVTMTRDTSTSTVYMELSSLRSEDTAVYYCAREDYYGSRWGYWGQGTLVTVSSGGGGSGGGGSGGGGSDIVLTQSPASLAVSPGQRATITCRASKSVSTSGYSYMHWYQQKPGQPPKLLIYLASNLESGVPARFSGSGSGTDFTLTINPVEANDTANYYCQHSREHLTFGQGTKVEIK
affinity compared with P001018 clone (human CD200R1): enhanced affinity

B7: L3-L95D: P001018 scFv mutant, SEQ ID NO: 170 (protein)
scFv: QVQLVQSGAEVKKPGASVKVSCKASGYTFTSYVMHWVRQAPGQGLEWMGYINPYNDDTNYNEKFKGRVTMTRDTSTSTVYMELSSLRSEDTAVYYCAREDYYGSRWGYWGQGTLVTVSSGGGGSGGGGSGGGGSDIVLTQSPASLAVSPGQRATITCRASKSVSTSGYSYMHWYQQKPGQPPKLLIYLASNLESGVPARFSGSGSGTDFTLTINPVEANDTANYYCQHSRELDTFGQGTKVEIK
affinity compared with P001018 clone (human CD200R1): enhanced affinity

B8: L3-T96R: P001018 scFv mutant, SEQ ID NO: 171 (protein)
scFv: QVQLVQSGAEVKKPGASVKVSCKASGYTFTSYVMHWVRQAPGQGLEWMGYINPYNDDTNYNEKFKGRVTMTRDTSTSTVYMELSSLRSEDTAVYYCAREDYYGSRWGYWGQGTLVTVSSGGGGSGGGGSGGGGSDIVLTQSPASLAVSPGQRATITCRASKSVSTSGYSYMHWYQQKPGQPPKLLIYLASNLESGVPARFSGSGSGTDFTLTINPVEANDTANYYCQHSRELLRFGQGTKVEIK
affinity compared with P001018 clone (human CD200R1): enhanced affinity

B9: ch1F1: clone discovered using hybridoma technology (1F1), tested in IgG1 form (antibody, V domains shown)
VH: QVQLQQPGAEFVKPGAPVKLSCKASGYTFTSYWMNWVKQRPGRGLEWIGRIDPADSEIHYNQKFKDKATLTVDKSSSTAYIQFSSLTSEDSAVYYCARSGGWLPGFAYWGQGTLVTVSA
VL: ENVLTQSPAIMSASPGEKVTMTCSASSSLIYMHWYQQKSSTSPKLWIYDTSKLASGVPGRFSGSGSGNSYSLTINSMEAEDVATYYCFQGSGYPLMYTFGGGTKLEIK
cell binding ability [1]: significant binding ability | cell binding ability [2]: significant binding ability
